Assays:
WT JR-FL gp120 (HIV-1) = assay: ELISA, antigen-coated wells
[1] = molecular target: HIV-1 94UG103 Env (pseudovirus) (HIV-1); assay: cell-based or functional assay
[2] = molecular target: HIV-1 93IN905 Env (pseudovirus) (HIV-1); assay: cell-based or functional assay
[3] = molecular target: HIV-1 Env of pseudovirus isolate MGRM-G-004 (HIV-1); assay: cell-based or functional assay
[4] = molecular target: HIV-1 Env of pseudovirus isolate MGRM-G-027 (HIV-1); assay: cell-based or functional assay
[5] = molecular target: HIV-1 Env of isolate MGRM-C-007 (HIV-1); assay: cell-based or functional assay
[6] = molecular target: HIV-1 92RW020 Env (pseudovirus) (HIV-1); assay: cell-based or functional assay
[7] = molecular target: HIV-1 92UG005 Env (pseudovirus) (HIV-1); assay: cell-based or functional assay
[8] = molecular target: HIV-1 Env of pseudovirus isolate MGRM-G-016 (HIV-1); assay: cell-based or functional assay
[9] = molecular target: HIV-1 Env of pseudovirus isolate MGRM-G-013 (HIV-1); assay: cell-based or functional assay
[10] = molecular target: HIV-1 Env of isolate MGRM-C-002 (HIV-1); assay: cell-based or functional assay
[11] = molecular target: HIV-1 Env of isolate MGRM-C-014 (HIV-1); assay: cell-based or functional assay
[12] = molecular target: HIV-1 Env of isolate MGRM-C-009 (HIV-1); assay: cell-based or functional assay
[13] = molecular target: HIV-1 Env of isolate MGRM-C-015 (HIV-1); assay: cell-based or functional assay
[14] = molecular target: HIV-1 MGRM-A-010 Env (pseudovirus) (HIV-1); assay: cell-based or functional assay
[15] = molecular target: HIV-1 Env of pseudovirus isolate MGRM-G-015 (HIV-1); assay: cell-based or functional assay
[16] = molecular target: HIV-1 MGRM-D-018 Env (pseudovirus) (HIV-1); assay: cell-based or functional assay
[17] = molecular target: HIV-1 Env of pseudovirus isolate MGRM-G-009 (HIV-1); assay: cell-based or functional assay
[18] = molecular target: HIV-1 MGRM-C-028 Env (pseudovirus) (HIV-1); assay: cell-based or functional assay
[19] = molecular target: HIV-1 Env of isolate MGRM-C-005 (HIV-1); assay: cell-based or functional assay
[20] = molecular target: HIV-1 Env of isolate MGRM-C-017 (HIV-1); assay: cell-based or functional assay
[21] = molecular target: HIV-1 MGRM-C-026 Env (pseudovirus) (HIV-1); assay: cell-based or functional assay
[22] = molecular target: HIV-1 CMU02 Env (pseudovirus) (HIV-1); assay: cell-based or functional assay
[23] = molecular target: HIV-1 Env of isolate MGRM-C-020 (HIV-1); assay: cell-based or functional assay
[24] = molecular target: HIV-1 92TH021 Env (pseudovirus) (HIV-1); assay: cell-based or functional assay
[25] = molecular target: HIV-1 Env of isolate MGRM-C-012 (HIV-1); assay: cell-based or functional assay
[26] = molecular target: HIV-1 Env of isolate MGRM-C-006 (HIV-1); assay: cell-based or functional assay
[27] = molecular target: HIV-1 Env of isolate MGRM-C-023 (HIV-1); assay: cell-based or functional assay
[28] = molecular target: HIV-1 Env of pseudovirus isolate MGRM-G-014 (HIV-1); assay: cell-based or functional assay
[29] = molecular target: HIV-1 Env of isolate MGRM-C-001 (HIV-1); assay: cell-based or functional assay
[30] = molecular target: HIV-1 NL43 Env (pseudovirus) (HIV-1); assay: cell-based or functional assay
[31] = molecular target: HIV-1 Env of pseudovirus isolate MGRM-G-019 (HIV-1); assay: cell-based or functional assay
[32] = molecular target: HIV-1 Env of isolate MGRM-C-019 (HIV-1); assay: cell-based or functional assay
[33] = molecular target: HIV-1 Env of pseudovirus isolate MGRM-G-017 (HIV-1); assay: cell-based or functional assay
[34] = molecular target: HIV-1 Env of isolate MGRM-C-004 (HIV-1); assay: cell-based or functional assay
[35] = molecular target: HIV-1 Env of isolate MGRM-C-025 (HIV-1); assay: cell-based or functional assay
[36] = molecular target: envelope of aMLV pseudovirus (negative control); assay: cell-based or functional assay
[37] = molecular target: HIV-1 Env of isolate MGRM-C-022 (HIV-1); assay: cell-based or functional assay
[38] = molecular target: HIV-1 Env of pseudovirus isolate MGRM-G-006 (HIV-1); assay: cell-based or functional assay
[39] = molecular target: HIV-1 JRCSF Env (pseudovirus) (HIV-1) (UniProt P20871); assay: cell-based or functional assay
[40] = molecular target: HIV-1 92UG024 Env (pseudovirus) (HIV-1); assay: cell-based or functional assay
[41] = molecular target: HIV-1 Env of pseudovirus isolate MGRM-G-011 (HIV-1); assay: cell-based or functional assay
[42] = molecular target: HIV-1 MGRM-C-027 Env (pseudovirus) (HIV-1); assay: cell-based or functional assay
[43] = molecular target: HIV-1 Env of isolate MGRM-C-010 (HIV-1); assay: cell-based or functional assay
[44] = molecular target: HIV-1 Env of isolate MGRM-C-024 (HIV-1); assay: cell-based or functional assay
[45] = molecular target: HIV-1 Env of isolate MGRM-C-008 (HIV-1); assay: cell-based or functional assay
[46] = molecular target: HIV-1 Env of pseudovirus isolate MGRM-G-001 (HIV-1); assay: cell-based or functional assay
[47] = molecular target: HIV-1 APV6 Env (pseudovirus) (HIV-1); assay: cell-based or functional assay
[48] = molecular target: HIV-1 Env of isolate MGRM-C-013 (HIV-1); assay: cell-based or functional assay

5123_A06 (PGT-125) (antibody)
EC50 (WT JR-FL gp120 (HIV-1)): 0.2 µg/mL | neutralization IC50 (pseudovirus) [1]: 0.0124 µg/mL | neutralization IC50 (pseudovirus) [2]: 0.0137 µg/mL | IC50 (µg/mL), pseudovirus neutralization [3]: > 50 µg/mL | IC50 (µg/mL), pseudovirus neutralization [4]: 34.4 µg/mL | neutralization IC50 [5]: > 50 µg/mL | neutralization IC50 (pseudovirus) [6]: 0.0028 µg/mL | neutralization IC50 (pseudovirus) [7]: > 10 µg/mL | IC50 (µg/mL), pseudovirus neutralization [8]: > 50 µg/mL | IC50 (µg/mL), pseudovirus neutralization [9]: > 50 µg/mL | neutralization IC50 [10]: 0.008 µg/mL | neutralization IC50 [11]: > 50 µg/mL | neutralization IC50 [12]: > 50 µg/mL | neutralization IC50 [13]: > 50 µg/mL | neutralization IC50 (pseudovirus) [14]: 0.0055 µg/mL | IC50 (µg/mL), pseudovirus neutralization [15]: > 50 µg/mL | neutralization IC50 (pseudovirus) [16]: 0.0382 µg/mL | IC50 (µg/mL), pseudovirus neutralization [17]: > 50 µg/mL | neutralization IC50 (pseudovirus) [18]: 5.78 µg/mL | neutralization IC50 [19]: 2.09 µg/mL | neutralization IC50 [20]: 2.36 µg/mL | neutralization IC50 (pseudovirus) [21]: 0.0106 µg/mL | neutralization IC50 (pseudovirus) [22]: > 10 µg/mL | neutralization IC50 [23]: > 50 µg/mL | neutralization IC50 (pseudovirus) [24]: 0.0066 µg/mL | neutralization IC50 [25]: > 50 µg/mL | neutralization IC50 [26]: 0.015 µg/mL | neutralization IC50 [27]: 1.31 µg/mL | IC50 (µg/mL), pseudovirus neutralization [28]: 0.007 µg/mL | neutralization IC50 [29]: > 50 µg/mL | neutralization IC50 (pseudovirus) [30]: > 10 µg/mL | IC50 (µg/mL), pseudovirus neutralization [31]: > 50 µg/mL | neutralization IC50 [32]: 0.13 µg/mL | IC50 (µg/mL), pseudovirus neutralization [33]: > 50 µg/mL | neutralization IC50 [34]: 1.82 µg/mL | neutralization IC50 [35]: 42.5 µg/mL | IC50 (µg/mL), pseudovirus neutralization [36]: > 50 µg/mL | neutralization IC50 [37]: 1.23 µg/mL | IC50 (µg/mL), pseudovirus neutralization [38]: > 50 µg/mL | neutralization IC50 (pseudovirus) [39]: 0.006 µg/mL | neutralization IC50 (pseudovirus) [40]: > 10 µg/mL | IC50 (µg/mL), pseudovirus neutralization [41]: > 50 µg/mL | neutralization IC50 (pseudovirus) [42]: > 10 µg/mL | neutralization IC50 [43]: > 50 µg/mL | neutralization IC50 [44]: > 50 µg/mL | neutralization IC50 [45]: > 50 µg/mL | IC50 (µg/mL), pseudovirus neutralization [46]: 0.033 µg/mL | neutralization IC50 (pseudovirus) [47]: 0.0359 µg/mL | neutralization IC50 [48]: > 50 µg/mL

5141_B17 (PGT-126) (antibody)
EC50 (WT JR-FL gp120 (HIV-1)): 0.1 µg/mL | neutralization IC50 (pseudovirus) [1]: 0.0091 µg/mL | neutralization IC50 (pseudovirus) [2]: 0.0194 µg/mL | IC50 (µg/mL), pseudovirus neutralization [3]: > 50 µg/mL | IC50 (µg/mL), pseudovirus neutralization [4]: 0.875 µg/mL | neutralization IC50 [5]: 25.3 µg/mL | neutralization IC50 (pseudovirus) [6]: 0.0046 µg/mL | neutralization IC50 (pseudovirus) [7]: 0.0181 µg/mL | IC50 (µg/mL), pseudovirus neutralization [8]: > 50 µg/mL | IC50 (µg/mL), pseudovirus neutralization [9]: 48.8 µg/mL | neutralization IC50 [10]: 0.011 µg/mL | neutralization IC50 [11]: > 50 µg/mL | neutralization IC50 [12]: > 50 µg/mL | neutralization IC50 [13]: 3.14 µg/mL | neutralization IC50 (pseudovirus) [14]: 0.0033 µg/mL | IC50 (µg/mL), pseudovirus neutralization [15]: > 50 µg/mL | neutralization IC50 (pseudovirus) [16]: 0.0093 µg/mL | IC50 (µg/mL), pseudovirus neutralization [17]: > 50 µg/mL | neutralization IC50 (pseudovirus) [18]: 0.283 µg/mL | neutralization IC50 [19]: 0.298 µg/mL | neutralization IC50 [20]: 0.17 µg/mL | neutralization IC50 (pseudovirus) [21]: 0.0076 µg/mL | neutralization IC50 (pseudovirus) [22]: > 10 µg/mL | neutralization IC50 [23]: > 50 µg/mL | neutralization IC50 (pseudovirus) [24]: 0.115 µg/mL | neutralization IC50 [25]: 0.111 µg/mL | neutralization IC50 [26]: 0.014 µg/mL | neutralization IC50 [27]: 0.065 µg/mL | IC50 (µg/mL), pseudovirus neutralization [28]: 0.009 µg/mL | neutralization IC50 [29]: > 50 µg/mL | neutralization IC50 (pseudovirus) [30]: > 10 µg/mL | IC50 (µg/mL), pseudovirus neutralization [31]: 0.018 µg/mL | neutralization IC50 [32]: 0.006 µg/mL | IC50 (µg/mL), pseudovirus neutralization [33]: > 50 µg/mL | neutralization IC50 [34]: 0.033 µg/mL | neutralization IC50 [35]: 0.786 µg/mL | IC50 (µg/mL), pseudovirus neutralization [36]: > 50 µg/mL | neutralization IC50 [37]: 0.96 µg/mL | IC50 (µg/mL), pseudovirus neutralization [38]: > 50 µg/mL | neutralization IC50 (pseudovirus) [39]: 0.0061 µg/mL | neutralization IC50 (pseudovirus) [40]: > 10 µg/mL | IC50 (µg/mL), pseudovirus neutralization [41]: 7.32 µg/mL | neutralization IC50 (pseudovirus) [42]: 1.14 µg/mL | neutralization IC50 [43]: > 50 µg/mL | neutralization IC50 [44]: > 50 µg/mL | neutralization IC50 [45]: 2.12 µg/mL | IC50 (µg/mL), pseudovirus neutralization [46]: 0.038 µg/mL | neutralization IC50 (pseudovirus) [47]: 0.0249 µg/mL | neutralization IC50 [48]: > 50 µg/mL

Source: patent US20250320281A1
